Assay results published in patent publication US20240116985A1 (published 2024).
Starred links: 1 amine or outer side, 2 acyl side, 3 side chain; linkers in the order of their positions; H or OH if unused. Positions of bridges follow the written chain, without caps; N, C: chain ends. Non-standard residues stand in square brackets, D forms with d. Primed or numbered codes have the meaning given here. PyrS2″ = (S)-3-amino-1-((pent-4-en-1-yloxy)carbonyl)pyrrolidine-3-carboxylic acid (stapling residue), C=CCCCOC(=O)N1CC[C@@](N[*:1])(C(=O)[*:2])C1; SeN″ = (S)-5-(((allyloxy)carbonyl)(methyl)amino)-2-amino-2-methylpentanoic acid (stapling residue), C=CCOC(=O)N(C)CCC[C@](C)(N[*:1])C(=O)[*:2]; B5(16) = 2-amino-2-(pent-4-en-1-yl)hept-6-enoic acid = 2,2-bis(4-pentenyl)glycine (stitching residue), C=CCCCC(CCCC=C)(N[*:1])C(=O)[*:2]; B5(23) = 2-amino-2-(pent-4-en-1-yl)hept-6-enoic acid (2,2-bis(4-pentenyl)glycine), stitching residue, C=CCCCC(CCCC=C)(N[*:1])C(=O)[*:2]; B5(4) = 2,2-bis(4-pentenyl)glycine = 2-amino-2-(pent-4-en-1-yl)hept-6-enoic acid (stitching residue), C=CCCCC(CCCC=C)(N[*:1])C(=O)[*:2]; B5(9) = 2-amino-2-(pent-4-en-1-yl)hept-6-enoic acid (2,2-bis(4-pentenyl)glycine), C=CCCCC(CCCC=C)(N[*:1])C(=O)[*:2]; 23FF = 2,3-difluoro-L-phenylalanine, O=C([C@H](Cc1cccc(F)c1F)N[*:1])[*:2]; Phe(3,5-F2) = N[C@@H](Cc1cc(F)cc(F)c1)C(=O)O; Phe(3-F) = N[C@@H](Cc1cccc(F)c1)C(=O)O; His(τ-Me) = Cn1cnc(C[C@H](N)C(=O)O)c1; Bta = N[C@@H](Cc1csc2ccccc12)C(=O)O; αAllylPro = C=CC[C@@]1(C(=O)O)CCCN1; tBuAla = CC(C)(C)C[C@H](N)C(=O)O; 3Thi = N[C@@H](Cc1ccsc1)C(=O)O; S8 = C=CCCCCCC[C@](C)(N)C(=O)O; 34ClF = not defined here

T1: B-cat-Halo (beta-catenin HaloTag construct expressed in HEK293 cells) (UniProt P35222 1-781)
T1 sequence (looked up): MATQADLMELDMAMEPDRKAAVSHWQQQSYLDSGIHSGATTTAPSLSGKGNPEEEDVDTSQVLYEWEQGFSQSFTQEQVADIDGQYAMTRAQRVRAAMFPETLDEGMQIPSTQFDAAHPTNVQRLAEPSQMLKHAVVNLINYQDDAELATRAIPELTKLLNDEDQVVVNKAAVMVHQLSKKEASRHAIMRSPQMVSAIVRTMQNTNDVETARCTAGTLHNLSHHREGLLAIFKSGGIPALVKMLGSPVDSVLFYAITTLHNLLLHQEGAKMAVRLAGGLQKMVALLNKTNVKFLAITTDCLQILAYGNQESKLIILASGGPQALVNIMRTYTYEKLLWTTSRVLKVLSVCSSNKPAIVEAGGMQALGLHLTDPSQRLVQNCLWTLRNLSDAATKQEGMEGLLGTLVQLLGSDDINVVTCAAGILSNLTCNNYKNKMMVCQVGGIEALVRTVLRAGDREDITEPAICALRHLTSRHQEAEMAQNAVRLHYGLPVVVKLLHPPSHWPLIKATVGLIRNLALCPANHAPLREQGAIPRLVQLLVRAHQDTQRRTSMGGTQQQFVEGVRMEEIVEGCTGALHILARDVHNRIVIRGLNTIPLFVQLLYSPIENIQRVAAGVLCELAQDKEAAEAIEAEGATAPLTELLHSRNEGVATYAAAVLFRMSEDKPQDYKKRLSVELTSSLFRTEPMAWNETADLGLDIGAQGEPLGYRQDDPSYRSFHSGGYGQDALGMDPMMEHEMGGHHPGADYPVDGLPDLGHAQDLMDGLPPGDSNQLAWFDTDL

T2: full-length beta-Catenin (Uniprot ID P35222) (Homo sapiens (Human), UniProt P35222 1-781)
T2 construct: The assay text says full-length beta-Catenin (Uniprot ID P35222); also called bCat; B-Catenin
T2 sequence: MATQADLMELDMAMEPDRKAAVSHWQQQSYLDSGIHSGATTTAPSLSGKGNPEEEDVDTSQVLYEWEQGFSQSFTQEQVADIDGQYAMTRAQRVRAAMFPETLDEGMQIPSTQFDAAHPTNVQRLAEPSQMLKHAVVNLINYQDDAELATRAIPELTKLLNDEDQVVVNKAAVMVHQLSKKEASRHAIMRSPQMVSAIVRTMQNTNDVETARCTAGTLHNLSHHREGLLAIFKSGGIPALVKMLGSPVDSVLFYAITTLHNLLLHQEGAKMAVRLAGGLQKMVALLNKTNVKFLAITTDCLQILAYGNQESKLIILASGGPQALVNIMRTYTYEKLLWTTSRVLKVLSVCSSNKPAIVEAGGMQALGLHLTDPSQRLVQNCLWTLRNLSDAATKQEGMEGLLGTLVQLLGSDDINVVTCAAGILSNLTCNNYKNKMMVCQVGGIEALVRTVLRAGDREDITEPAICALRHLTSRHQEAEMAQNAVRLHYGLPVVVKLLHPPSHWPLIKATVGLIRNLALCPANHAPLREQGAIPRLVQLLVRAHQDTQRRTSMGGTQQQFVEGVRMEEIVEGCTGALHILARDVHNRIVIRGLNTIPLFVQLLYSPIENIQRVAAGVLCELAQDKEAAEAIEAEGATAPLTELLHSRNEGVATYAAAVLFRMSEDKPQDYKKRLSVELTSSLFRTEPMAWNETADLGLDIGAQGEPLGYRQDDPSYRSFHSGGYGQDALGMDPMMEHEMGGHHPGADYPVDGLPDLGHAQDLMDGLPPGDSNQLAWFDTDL

B1: I-2183 (peptide)
peptide: Ac-[αAllylPro]D[tBuAla][B5(4)]DDAAFL[PyrS2″][3Thi][34ClF]Q-NH2
modifications: staple 1-4, 4-11; reading uncertain; also: printed as Ac-PL3-Asp-Npg-B5-Asp-Asp-Ala-Ala-Phe-Leu-PyrS2-3Thi-34C1F-Gln-NH2
B2: I-390 (peptide)
peptide: Ac-[αAllylPro]DA[B5(9)]DEAA[23FF]V[S8]F[Bta]Q-NH2
modifications: staple 1-4, 4-11; not fully specified; printed as Ac-PL3-Asp-Ala-B5-Asp-Glu-Ala-Ala-23FF-Val-S8-Phe-BztA-Gln-NH2
notes: Stapled peptide; also called Ac-PL3-Asp-Ala-B5-Asp-Glu-Ala-Ala-23FF-Val-S8-Phe-BztA-Gln-NH2
B3: I-389 (peptide)
peptide: Ac-[αAllylPro]DA[B5(9)]DEAAFV[S8][23FF][Bta]Q-NH2
modifications: staple 1-4, 4-11; also: later eluting HPLC isomer, E/Z not assigned
notes: Stapled peptide; also called Ac-PL3-Asp-Ala-B5-Asp-Glu-Ala-Ala-Phe-Val-S8-23FF-BztA-Gln-NH2
B4: I-391 (peptide)
peptide: Ac-[αAllylPro]DA[B5(9)]DEAA[23FF]V[S8]F[Bta]Q-NH2
modifications: staple 1-4, 4-11; also: later eluting HPLC isomer, E/Z not assigned
notes: as for B2
B5: I-394 (peptide)
peptide: Ac-[αAllylPro]DA[B5(9)]DEAAFV[S8][Phe(3,5-F2)][Bta]Q-NH2
modifications: staple 1-4, 4-11
notes: Stapled peptide; also called Ac-PL3-Asp-Ala-B5-Asp-Glu-Ala-Ala-Phe-Val-S8-35FF-BztA-Gln-NH2
B6: I-388 (peptide)
peptide: XDAXDEAAFVXFXQ
modifications: not fully specified; N-terminal Ac; PL3 at 1, B5 at 4, S8 at 11 (stapled 1-4 and 4-11 by olefin metathesis); 23FF at 12; BztA at 13; C-terminal NH2
notes: as for B3
B7: I-398 (peptide)
peptide: Ac-[αAllylPro]DA[B5(16)]DHAAFV[SeN″][Phe(3-F)][Bta]Q-NH2
modifications: staple 1-4, 4-11; not fully specified; printed as Ac-PL3-Asp-Ala-B5-Asp-His-Ala-Ala-Phe-Val-SeN-3FF-BztA-Gln-NH2
notes: Stapled peptide; also called Ac-PL3-Asp-Ala-B5-Asp-His-Ala-Ala-Phe-Val-SeN-3FF-BztA-Gln-NH2
B8: I-400 (peptide)
peptide: Ac-[αAllylPro]DA[B5(16)]DHAAFQ[SeN″][Phe(3-F)][Bta]Q-NH2
modifications: staple 1-4, 4-11; not fully specified; printed as Ac-PL3-Asp-Ala-B5-Asp-His-Ala-Ala-Phe-Gln-SeN-3FF-BztA-Gln-NH2
notes: Stapled peptide; also called Ac-PL3-Asp-Ala-B5-Asp-His-Ala-Ala-Phe-Gln-SeN-3FF-BztA-Gln-NH2
B9: I-407 (peptide)
peptide: Ac-[αAllylPro]DI[B5(23)]DEAAFQ[S8]F[Bta]Q-NH2
modifications: staple 1-4, 4-11
notes: Stapled peptide; also called Ac-PL3-Asp-Ile-B5-Asp-Glu-Ala-Ala-Phe-Gln-S8-Phe-BztA-Gln-NH2
B10: I-410 (peptide)
peptide: Ac-[αAllylPro]DV[B5(23)]DEAAFQ[S8]F[Bta]Q-NH2
modifications: staple 1-4, 4-11
notes: Stapled peptide; also called Ac-PL3-Asp-Val-B5-Asp-Glu-Ala-Ala-Phe-Gln-S8-Phe-BztA-Gln-NH2
B11: I-406 (peptide)
peptide: Ac-[αAllylPro]DA[B5(23)]DEAAFQ[S8]F[Bta]Q-NH2
modifications: staple 1-4, 4-11
notes: Stapled peptide; also called Ac-PL3-Asp-Ala-B5-Asp-Glu-Ala-Ala-Phe-Gln-S8-Phe-BztA-Gln-NH2
B12: I-403 (peptide)
peptide: Ac-[αAllylPro]DA[B5(16)]D[His(τ-Me)]AAFV[S8][Phe(3-F)][Bta]Q-NH2
modifications: staple 1-4, 4-11; not fully specified
notes: Stapled peptide; also called Ac-PL3-Asp-Ala-B5-Asp-1meH-Ala-Ala-Phe-Val-S8-3FF-BztA-Gln-NH2
B13: I-397 (peptide)
peptide: XDAXDHAAFVXFXQ
modifications: not fully specified; N-terminal Ac; PL3 at 1, B5 at 4, S8 at 11 (stapled 1-4 and 4-11 by olefin metathesis); 3FF at 12; BztA at 13; C-terminal NH2
notes: Stapled peptide; also called Ac-PL3-Asp-Ala-B5-Asp-His-Ala-Ala-Phe-Val-S8-3FF-BztA-Gln-NH2
B14: I-396 (peptide)
peptide: Ac-[αAllylPro]DA[B5(9)]DHAAFV[S8][Phe(3-F)][Bta]Q-NH2
modifications: staple 1-4, 4-11; also: earlier eluting HPLC isomer, E/Z not assigned
notes: as for B13
B15: I-399 (peptide)
peptide: XDAXDHAAFQXFXQ
modifications: not fully specified; N-terminal Ac; PL3 at 1, B5 at 4, S8 at 11 (stapled 1-4 and 4-11 by olefin metathesis); 3FF at 12; BztA at 13; C-terminal NH2
notes: Stapled peptide; also called Ac-PL3-Asp-Ala-B5-Asp-His-Ala-Ala-Phe-Gln-S8-3FF-BztA-Gln-NH2

Target: T1, B-cat-Halo (beta-catenin HaloTag …)
Assay: cell-based or functional assay

With B1 the “NanoBRET Abs IC50” value was 5000 nM.

Target: T2, full-length beta-Catenin (Uniprot ID …)
Assay: fluorescence polarization competition; full-length beta-catenin with 5FAM-labeled TCF4 (residues 10-53) probe as competitor
Protocol: The plate was incubated protected from light for 60 minutes at 20° C. prior to read. Reads were performed on a CLARIOstar plate reader (BMG Labtech) in duplicate, and data were fitted to a 1:1 binding model with hill slope using an in-house script. All provided concentrations are final concentrations.

B2 and B3 are within 1.5-fold of each other in IC50: 3420 nM for the first, 5000 nM for the second.

Going from B4 to B5, the IC50 rises from 1910 nM to 5000 nM (2.6-fold). The first is the more potent here.

First: B6
Second: B7
The IC50 of the first is 2.3-fold higher: 5000 nM for the first, 2160 nM for the second.

Going from B8 to B9, the IC50 falls from 3590 nM to 30 nM (120-fold).

Compared with B10, B11 is 1.9-fold higher in IC50: 50 nM for the first, 94 nM for the second.

B12 and B13 are within 1.5-fold of each other in IC50: 2130 nM for the first, 2230 nM for the second.

B14 and B15 are within 1.5-fold of each other in IC50: 3430 nM for the first, 2500 nM for the second.
